Assays:
3′UTR of TGFB2 = experiment: Luciferase reporter assay, wild-type 3′UTR of TGFB2; type: cell-based, human; conditions: 48 h post-co-transfection, HEK293T cells or HUVECs; mutation of the binding sites restored it
Description: (§1) Luciferase assay has been performed as previously described^53. TGFB2 3′-UTR and SMAD2 3′-UTR vectors were cloned in pMIR-Reporter (Life Technology). Primers are used for the cloning are: TGFβ2 3′UTR: Forward 5′-[…]-3′ (SEQ ID NO: 7), Reverse 5′-[…]-3′ (SEQ ID NO: 8); SMAD2 3′UTR: Forward 5′-[…]-3′ (SEQ ID NO: 9), Reverse 5′-[…]-3′ (SEQ ID NO: 10). Primers for 3′UTR mutation: TGFB2: Forward […] (SEQ ID NO: 11) and Reverse […] (SEQ ID NO: 12); SMAD2 Forward […] (SEQ ID NO: 13) and Reverse […] (SEQ ID NO: 14). Luciferase constructs were transfected into HEK293T cells or HUVECs together with miR-148b mimics or p-SV-beta-Gal control vector. Cells were cultured for 48 h and assayed with the Luciferase and β-Galactosidase Reporter Assay Systems (Promega). Luciferase values were normalized to protein concentration and β-galactosidase activity.

3′UTR of SMAD2 = experiment: Luciferase reporter assay, wild-type 3′UTR of SMAD2; type: cell-based, human; conditions: 48 h post-co-transfection, HEK293T cells or HUVECs; mutation of the binding sites restored it
Description: as §1

B1: miR-148b mimic: miR-148b mimic oligonucleotide; in a particular embodiment has SEQ ID NO: 1, the human precursor miR-148b sequence (nucleic acid)
chain: CAAGCACGAUUAGCAUUUGAGGUGAAGUUCUGUUAUACACUCAGGCUGUGGCUCUCUGAAAGUCAGUGCAUCACAGAACUUUGUCUCGAAAGCUUUCUA
modifications: listed as RNA, chemistry not given here
luciferase activity, 3′-UTR-TGFB2 reporter (3′UTR of TGFB2): decreased luciferase activity | luciferase activity, 3′-UTR-SMAD2 reporter (3′UTR of SMAD2): decreased luciferase activity
